Key:
[1] = target: T1, recombinant human FGFR3 IIIc Fc fusion protein (human, UniProt P22607 23-375); assay: kinetic exclusion assay (KinExA), antibody and rhFGFR3 IIIc Fc in solution, room temperature
T1 construct: Bought reagent; also called rhFGFR3 IIIc Fc; not shown: Fc fragment (removable by Factor Xa)
T1 sequence (looked up): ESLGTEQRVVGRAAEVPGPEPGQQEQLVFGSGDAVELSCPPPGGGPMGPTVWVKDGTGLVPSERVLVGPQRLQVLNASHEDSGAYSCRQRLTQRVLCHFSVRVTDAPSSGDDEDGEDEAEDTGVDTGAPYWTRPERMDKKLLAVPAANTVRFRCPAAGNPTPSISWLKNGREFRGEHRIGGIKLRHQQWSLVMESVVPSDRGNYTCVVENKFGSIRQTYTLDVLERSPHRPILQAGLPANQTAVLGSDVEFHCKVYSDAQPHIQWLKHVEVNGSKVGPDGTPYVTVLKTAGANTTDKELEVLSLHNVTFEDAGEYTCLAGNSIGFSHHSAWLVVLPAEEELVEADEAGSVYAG
Procedure: The binding affinities of monoclonal 15D8, chimeric 15D8, and humanized 15D8 antibodies for recombinant human FGFR3 IIIc Fc fusion protein was measured using a kinetic exclusion assay, KinExA® technology (Sapidyne Instruments, Inc.). First, beads were prepared for the purpose of detecting anti-FGFR3 antibody that is unbound to FGFR3 IIIc Fc. This was done by adding 1 ml recombinant human FGFR3IIIc Fc (R&D Systems, Inc.) 10 ug/ml in PBS to 200 mg polymethyl methacrylate (PMMA) hard beads. The suspension was mixed and rotated for two hours at room temperature. Next, the mixture was centrifuged and supernatant was discarded. The bead pellet was rinsed once with 1 ml BSA 10 mg/ml in PBS by incubation for 1 hour at room temperature with rotation. The beads were resuspended in 27 ml PBS with 0.02% NaN₃. Next, a fixed concentration of anti-FGFR3 antibody (0.5 nM) was incubated in solution with a series of FGFR3 IIIc Fc concentrations (started with 50 nM (in PBS BSA (1 mg/ml)) and serially diluted 1:2 in PBS BSA(1 mg/ml) to obtain 50 to 0.0122 nM FGFR3 III Fc) at room temperature for at least 4 hours to allow equilibrium to be reached. By measuring the amount of anti-FGFR3 antibody that is not bound to FGFR3 IIIc Fc, the KD was determined. Unbound anti-FGFR3 antibody was detected by allowing the anti-FGFR3 antibody/FGFR3 IIIc Fc solution to flow through the FGFR3 IIIc Fc PMMA beads. The anti-FGFR3 antibody captured by these beads was then detected with Cy5-conjugated anti-human secondary antibody 0.3 ug/ml (Jackson ImmunoResearch) or Cy5-conjugated anti-mouse secondary antibody (Jackson ImmunoResearch) 0.5 ug/ml in PBS BSA 1 mg/ml. The detected signal for captured anti-FGFR3 antibody is directly proportional to the remaining free binding sites, thus allowing KD determination. The experiments were repeated, varying the concentrations of anti-FGFR3 antibody or FGFR3 III Fc used in solution, and the KD was calculated with the KinExA® software using n-curve analysis.

[2] = target: T1, recombinant human FGFR3 IIIc Fc fusion …; assay: SPR (Biacore T100), antibody captured on anti-mouse Ig, rhFGFR3 IIIc Fc as analyte, 25 C
Procedure: The binding affinities and kinetics of interaction of the monoclonal antibodies (15D8, 27H2, 2G4, and 4E7(7D12)) produced in Example 1 against recombinant human FGFR3 (IIIb and IIIc isoforms) Fc fusion protein (rhFGFR3 IIIb Fc or rhFGFR3 IIIc Fc) were measured by surface plasmon resonance using a Biacore™ T100 (Biacore) instrument.
Rabbit anti-mouse immunoglobulins (Biacore, Catalog No. BR-1005-14) were immobilized on carboxymethylated dextran CM4 sensor chips (Biacore, Catalog No. BR-1005-34) by amine coupling (Biacore, Catalog No. BR-1000-50) using a standard coupling protocol according to manufacturer's instructions.
The antibodies were captured in an individual flow cell at a flow rate of 10 μl/min. Injection time was varied for each antibody to yield approximately 40-50 RU of antibody captured for each cycle. Buffer or rhFGFR3 IIIb Fc (R&D Systems, Catalog No. 1264-FR-050) or rhFGFR3 IIIc Fc (R&D Systems, Catalog No. 766-FR-050) diluted in running buffer was injected sequentially over a reference surface (no antibody captured) and the active surface (antibody to be tested) for 300 sec at 60 μl/min. The dissociation phase was monitored for 30 minutes. The surface was then regenerated with two 60-seconds injection of 10 mM Glycine-HCl, pH 1.7 (made from Glycine pH 1.5 (Biacore, Catalog No. BR-1003-54) and pH 2.0 (Biacore, Catalog No. BR-1003-55)) at a flow rate of 60 μl/min. rhFGFR3 Fc concentrations tested were 0.62 nM to 40 nM.

B1: anti-FGFR3 monoclonal antibody 15D8 (antibody, mouse IgG1, kappa)
heavy: EIQLQQSGPELVKPGASVKVSCKASGYAFTSYNMYWVKQSHGKSLEWIGYIDPYNGGTSYNQKFKGKATLTVDKSSSTAYMHLNSLTSEDSAVYYCAREGGNYEAWFAYWGQGTLVTVSAAKTTPPSVYPLAPGSAAQTNSMVTLGCLVKGYFPEPVTVTWNSGSLSSGVHTFPAVLQSDLYTLSSSVTVPSSTWPSETVTCNVAHPASSTKVDKKIVPRDCGCKPCICTVPEVSSVFIFPPKPKDVLTITLTPKVTCVVVDISKDDPEVQFSWFVDDVEVHTAQTQPREEQFNSTFRSVSELPIMHQDWLNGKEFKCRVNSAAFPAPIEKTISKTKGRPKAPQVYTIPPPKEQMAKDKVSLTCMITDFFPEDITVEWQWNGQPAENYKNTQPIMDTDGSYFVYSKLNVQKSNWEAGNTFTCSVLHEGLHNHHTEKSLSHSPGK
light: QIVLTQSPALMSASPGEKVTMTCSASSSVSYMYWYQQKPRSSPKPWIYLTSYLASGVPARFSGSGSGTSYSLTISSMEAEDAATYYCQQWSSYPLTFGAGTKLELKRADAAPTVSIFPPSSEQLTSGGASVVCFLNNFYPKDINVKWKIDGSERQNGVLNSWTDQDSKDSTYSMSSTLTLTKDEYERHNSYTCEATHKTSTSPIVKSFNRNEC
notes: also called 15D8 IgG1; murine antibody 15D8
Question: Which results are given for B1?
Answer: Kd [1]: 0.0806 nM; Kd [2]: 2.2 nM; koff [2]: 0.0002 s⁻¹; kon [2]: 93000 M⁻¹ s⁻¹

Reference: US20100003258A1 (AVEO PHARMACEUTICALS, published 2010)
